Patent publication US6028055A, “Receptor selective BNP” (Genetech, Inc., priority 1997, dated 2000)

How the values were obtained:
[1] = target: human natriuretic peptide receptor-A expressed in 293 cells (human) (UniProt P16066); assay: competition with 30 pM 125I-rat ANP on membranes of 293 cells expressing NPR-A; unit not given
[2] = target: T1, NPR-C expressed in stable 293 cell lines (membranes) (human) (UniProt P17342); assay: competition with 30 pM 125I-rat ANP on membranes of 293 cells expressing NPR-C; unit not given
T1 sequence: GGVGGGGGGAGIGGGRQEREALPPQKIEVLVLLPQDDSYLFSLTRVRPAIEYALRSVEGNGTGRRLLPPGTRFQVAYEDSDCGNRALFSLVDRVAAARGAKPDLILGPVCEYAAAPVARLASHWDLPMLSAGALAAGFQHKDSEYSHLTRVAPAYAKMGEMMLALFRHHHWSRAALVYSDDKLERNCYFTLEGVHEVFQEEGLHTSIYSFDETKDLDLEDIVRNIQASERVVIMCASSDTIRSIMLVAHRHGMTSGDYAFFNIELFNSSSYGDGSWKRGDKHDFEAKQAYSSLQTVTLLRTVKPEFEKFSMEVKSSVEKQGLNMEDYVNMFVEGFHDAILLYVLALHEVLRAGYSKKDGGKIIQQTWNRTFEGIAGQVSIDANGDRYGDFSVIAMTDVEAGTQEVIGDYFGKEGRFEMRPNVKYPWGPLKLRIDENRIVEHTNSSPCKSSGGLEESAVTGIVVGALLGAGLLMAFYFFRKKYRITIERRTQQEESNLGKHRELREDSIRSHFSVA

[3] = target: T2, NPR-A (Homo sapiens, UniProt P16066); assay: Measurement of binding affinities for NPR-A, membranes from stable 293 cell lines, 125I rat ANP displacement; conditions: pure synthetic peptide vs 30 pM 125I rat ANP, 2 hours room temperature; duplicate points, three separate assays
T2 construct: expressed in transfected cells
T2 sequence (P16066 33-1061): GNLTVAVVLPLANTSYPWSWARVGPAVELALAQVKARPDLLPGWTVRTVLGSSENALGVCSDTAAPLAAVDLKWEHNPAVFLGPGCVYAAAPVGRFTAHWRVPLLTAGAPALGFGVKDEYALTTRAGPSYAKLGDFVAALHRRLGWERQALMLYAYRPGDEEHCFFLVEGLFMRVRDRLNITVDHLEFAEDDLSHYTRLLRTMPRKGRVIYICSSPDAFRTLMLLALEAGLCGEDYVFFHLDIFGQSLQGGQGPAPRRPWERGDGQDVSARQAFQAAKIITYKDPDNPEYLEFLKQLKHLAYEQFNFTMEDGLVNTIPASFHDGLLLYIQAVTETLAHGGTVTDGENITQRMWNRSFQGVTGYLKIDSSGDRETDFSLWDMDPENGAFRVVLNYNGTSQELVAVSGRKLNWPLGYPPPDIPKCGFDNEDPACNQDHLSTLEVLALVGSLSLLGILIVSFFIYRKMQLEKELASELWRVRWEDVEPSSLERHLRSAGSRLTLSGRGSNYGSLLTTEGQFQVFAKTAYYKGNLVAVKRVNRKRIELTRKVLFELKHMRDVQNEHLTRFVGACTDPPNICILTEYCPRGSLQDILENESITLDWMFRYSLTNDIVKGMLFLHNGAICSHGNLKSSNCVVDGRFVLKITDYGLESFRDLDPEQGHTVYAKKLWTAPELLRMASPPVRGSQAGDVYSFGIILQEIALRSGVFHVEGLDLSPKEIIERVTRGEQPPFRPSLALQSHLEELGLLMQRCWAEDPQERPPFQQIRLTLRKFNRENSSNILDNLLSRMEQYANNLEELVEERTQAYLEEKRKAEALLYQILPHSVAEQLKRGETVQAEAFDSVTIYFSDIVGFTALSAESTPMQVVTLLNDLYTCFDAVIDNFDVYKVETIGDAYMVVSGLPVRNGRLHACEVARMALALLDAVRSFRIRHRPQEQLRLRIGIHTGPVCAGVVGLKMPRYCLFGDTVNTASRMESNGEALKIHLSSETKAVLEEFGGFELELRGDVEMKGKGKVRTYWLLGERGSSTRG
Method: (§1) Membrane Preparation Membranes from stable 293 cell lines expressing NPR-A (Lowe and Fendly (1992) J. Biol. Chem.) or NPR-C (Cunningham et al. (1994) supra) were prepared by removing the cells from tissue culture plates with 0.5MM EDTA in PBS, centrifuging at 225×g, 4° C., and resuspending in 50 mM Hepes Ph7.4, 1 mM EDTA, 1 mM DTT, 250 mM Sucrose, 0.7 μg/ml Pepstatin A, 0.5 μg/ml Leupeptin, 1 mM PMSF, 1 μM Phosphoramidon. The resuspended cells were homogenized for 30 seconds with a Brinkman polytron on setting 5. The homogenate was centrifuged in 30 ml corex tubes in Sorval HB-4 rotor at 400×(1500 rpm) for 10 minutes at 4° C. The supernatant was centrifuged again in screw cap polycarbonate tubes (Beckman 355618) at 100,000×g (31,500 rpm) for 30 minutes, 4° C. in a Beckman TI60 rotor. The pellet was resuspended in 50 mM Hepes, 0.1 mM EDTA, 5.0 mM MgCl2, 100 mM NaCl, 0.7μg/ml Pepstatin A, 0.5 μg/ml Leupeptin, 1 mM PMSF, 1 μM Phosphoramidon and homogenized again with 15 strokes in a Dounce homogenizer (Wheaton 7 ml, #357542). The membranes were passed through a 22 gauge needle several times before aliquoting into eppendorf tubes for storage at -80° C.
(§2) The binding was allowed to go for 2 hours at room temperature in 96 well U-bottomed microtiter polypropylene plates (Sigma M-4029) with gentle agitation. The bound hormone was separated from the free using a Packard Filtermate 196 cell harvester and 1% polyethyleneimine-saturated Packard unifilter-96 GF/B plates by vacuum filtration. The plates were dried under vacuum chamber for 10 minutes prior to adding 40 μl Microscint-20 scintillant and counting in a Packard Topcount scintillation counter. Each affinity represents points measured in duplicate within three separate assays.

[4] = target: T3, NPR-C (Homo sapiens, UniProt P17342); assay: Measurement of binding affinities for NPR-C, membranes from stable 293 cell lines, 125I rat ANP displacement; parameters: unit not given here; conditions: pure synthetic peptide vs 30 pM 125I rat ANP, 2 hours room temperature; duplicate points, three separate assays
T3 construct: expressed in transfected cells
T3 sequence (P17342 27-541): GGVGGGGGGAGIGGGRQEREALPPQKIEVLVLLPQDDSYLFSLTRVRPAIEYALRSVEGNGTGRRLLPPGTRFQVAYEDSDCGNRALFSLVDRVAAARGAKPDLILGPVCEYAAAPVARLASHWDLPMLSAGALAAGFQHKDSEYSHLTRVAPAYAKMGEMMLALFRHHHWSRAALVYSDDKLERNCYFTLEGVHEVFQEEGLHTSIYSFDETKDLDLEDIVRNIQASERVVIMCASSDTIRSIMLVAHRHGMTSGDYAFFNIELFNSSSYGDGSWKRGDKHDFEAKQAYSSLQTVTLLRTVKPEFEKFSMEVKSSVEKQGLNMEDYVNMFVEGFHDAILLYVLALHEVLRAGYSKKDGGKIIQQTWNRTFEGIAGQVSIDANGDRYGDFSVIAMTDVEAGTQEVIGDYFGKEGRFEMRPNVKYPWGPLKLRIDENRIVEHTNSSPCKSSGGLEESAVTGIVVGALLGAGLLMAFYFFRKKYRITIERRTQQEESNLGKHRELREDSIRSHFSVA
Method: as §1, §2

[5] = target: human natriuretic peptide receptor-A expressed in 293 cells (human, UniProt P16066); assay: competition with 30 pM 125I-rat ANP on membranes of 293 cells expressing NPR-A; unit not given
Method: as §1, with “µg/ml” for “μg/ml”, “µM” for “μM”, “MgCl_2,” for “MgCl2,”, “0.7µg/ml” for “0.7μg/ml”, “−80°” for “-80°”
(§3) The binding was allowed to go for 2 hours at room temperature in 96 well U-bottomed microtiter polypropylene plates (Sigma M-4029) with gentle agitation. The bound hormone was separated from the free using a Packard Filtermate 196 cell harvester and 1% polyethyleneimine-saturated Packard unifilter-96 GF/B plates by vacuum filtration. The plates were dried under vacuum chamber for 10 minutes prior to adding 40 µl Microscint-20 scintillant and counting in a Packard Topcount scintillation counter. Each affinity represents points measured in duplicate within three separate assays.

[6] = target: T4, NPR-C expressed in stable 293 cell lines (membranes) (human, UniProt P17342); assay: competition with 30 pM 125I-rat ANP on membranes of 293 cells expressing NPR-C; unit not given
T4 sequence: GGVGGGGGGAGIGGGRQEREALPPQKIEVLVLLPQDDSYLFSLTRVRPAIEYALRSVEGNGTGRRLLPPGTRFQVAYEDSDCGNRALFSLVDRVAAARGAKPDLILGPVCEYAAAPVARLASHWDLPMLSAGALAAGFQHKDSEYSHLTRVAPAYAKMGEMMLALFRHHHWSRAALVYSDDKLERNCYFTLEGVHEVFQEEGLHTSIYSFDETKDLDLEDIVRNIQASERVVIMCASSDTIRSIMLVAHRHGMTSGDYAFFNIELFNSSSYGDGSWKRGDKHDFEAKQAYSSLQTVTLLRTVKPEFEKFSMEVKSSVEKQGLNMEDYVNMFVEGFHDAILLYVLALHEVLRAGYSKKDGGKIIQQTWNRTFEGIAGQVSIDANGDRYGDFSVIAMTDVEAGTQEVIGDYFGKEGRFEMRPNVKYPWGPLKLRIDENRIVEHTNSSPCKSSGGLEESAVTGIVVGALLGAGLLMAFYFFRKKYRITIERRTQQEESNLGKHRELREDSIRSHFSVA
Method: as §1, with “µg/ml” for “μg/ml”, “µM” for “μM”, “MgCl_2,” for “MgCl2,”, “0.7µg/ml” for “0.7μg/ml”, “−80°” for “-80°”
as §3

hBNP Ser19Arg (SEQ ID NO: 4) (peptide), sequence (peptide): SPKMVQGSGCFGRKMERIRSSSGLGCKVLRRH

Molecule	affinity (NPR-A) [1]	affinity (NPR-C) [2]	affinity (NPR-A) [5]	affinity (NPR-C) [6]	other results
hBNP (SEQ ID NO: 1) (peptide)	645	1790			
hBNP Gly23Phe, Leu24Trp, Gly25Arg (SEQ ID NO: 2) (peptide)	378	9360			
hBNP Gly23Phe, Leu24Trp, Gly25Arg (SPKMVQGSGCFGRKMERISSSSFWRCKVLRRH)					NPR-A binding affinity (Assay #1) [3]: 378 ± 136; NPR-C binding affinity (Assay #1) [4]: 9363 ± 2067
hBNP Ser19Arg					NPR-A binding affinity (Assay #1) [3]: 155 ± 55.3; NPR-C binding affinity (Assay #1) [4]: 95,498 ± 14,603
hBNP Ser19Arg (SEQ ID NO: 4) (peptide)	155	95500			
hBNP Ser19Arg Gly23Phe, Leu24Trp, Gly25Arg (SPKMVQGSGCFGRKMERIRSSSFWRCKVLRRH)					NPR-A binding affinity (Assay #1) [3]: 287 ± 27; NPR-C binding affinity (Assay #1) [4]: 172,400 ± 120,096
SLRRSSCFGGRIDRIGAQSGLGCNSFRY [hANP (SEQ ID NO: 51)]			43.5	198	
SPKMVQGSGCFGRKMERIRSSSFWRCKVLRRH [hBNP Ser19Arg, Gly23Phe, Leu24Trp, Gly25Arg (SEQ ID NO: 7)]	287	172000			
SLRRSSCFGGRIDRIRAQSGLGCNSFRY [hANP Gly16Arg (SEQ ID NO: 52)]			17.2	10600	
SPKMVQGSGCFGGRMDRIRSSSGLGCKVLRRH [hBNP Arg13Gly, Lys14Arg, Ser19Arg (SEQ ID NO:49)]			518	28400	
SLRRSSCFGGRIDRIGAQSFWRCNSFRY [hANP Net12Ile, Gly20Phe, Leu21Trp, Gly22Arg (SEQ ID NO:50)]			507	295	
